Measurements reported in the supplement of paper PMC9170038.

System: MS2 coat protein
Test: apparent KD of MS2 coat protein; designed switch direction (-1 OFF switch, 1 ON switch): -1; higher = weaker reporter binding
How it was run: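 SNAP-549-labelled MS2 coat protein was titrated, doubling from 0.7 or 1.5 nM to 3 µM, over designed RNA switches transcribed on Illumina chips by stalled E. coli RNA polymerase. Runs were done without input, with 200 uM small-molecule ligand, or with an oligonucleotide input. Apparent KD is the per-design median over clusters of curve-fitted normalised fluorescence.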

[1] = input ligand: microRNA oligo, concentration not stated
[2] = Eterna round: R95, input ligand: microRNA oligo, concentration not stated
[3] = Eterna round: R95, input ligand: FMN 200 uM
[4] = Eterna round: R95, input ligand: none

Sequence | apparent KD of MS2 coat protein (input ligand: FMN 200 uM) [µM] | apparent KD of MS2 coat protein (input ligand: none) [µM] | apparent KD of MS2 coat protein [1] [µM] | apparent KD of MS2 coat protein [2] [µM] | apparent KD of MS2 coat protein [3] [µM] | apparent KD of MS2 coat protein [4] [µM]
GGAGGAAGAGAGGAUAUGGAGGAGAGGAGAAGACCAGAAGGUUCAACAUGAGGAUCACCCAUGUAUGAUCCUCA [AK-MS2ROC-r4-exclusion6-1.1] (Eterna round: R97, puzzle: Exclusion 6) | 0.789 | 0.694 |  |  |  | 
CUGCUCCGUGUAGGAUAUGCAUACAACCAAUAUGCAGAAGGACAUGAGGAUCACCCAUGUAUGUUAUUAUCACGUGAAGCGUCC [Design 20] (Eterna round: R96, puzzle: Exclusion NG 1) |  |  | 0.0168 |  |  | 
GGAGGACGAGCAGGAUAUUUUUACAUGAGGAUCACCCAUGUGUAAUCAGGGUAAUCCUCCGCCGAAAAGAAGGGUUCGGAAGAA [Mat - Exclusion NG 2 - Mod of JL - D83] (Eterna round: R96, puzzle: Exclusion NG 2) | 2.75 | 0.0676 | 0.0169 |  |  | 
UUUUAACAUGAGGAUCACCCAUGUGAGGAUAUCGAAAUUUAUAUUAAUAUUUAUAAUUCGAGAAGGCACAUUUU [JMF 53] (puzzle: Exclusion 1) |  |  |  | 0.155 |  | 
AAGAGGAAUAUAGGAUAUGAGGCUGAGACGGCGUCAGAAGGGUAUCCAGAGUUACAUGAGGAUCACCCAUGUGGUGAUUUCUAA [Exclusion NG 1 V2 1] (Eterna round: R96, puzzle: Exclusion NG 1) | 0.0092 | 0.0812 | 0.00574 |  |  | 
AAGGGUACUUUCGGAACGACAUGAGGAUCACCCAUGUAGACUGAGGAUAUCUGCUACUAAGGACGGGAGAAGGCAGUGUAAUGU [Ex NG3 #75] (Eterna round: R96, puzzle: Exclusion NG 3) | 0.0185 | 0.0187 | 0.0128 |  |  | 
UGCCAGAAAGGAUAUACAUGAGGAUCACCCAUGUAACCCUAUGUGAGAGUUCCCGUUUGUAGAAGGUUCUCGUA [EX3 C.22] (Eterna round: R97, puzzle: Exclusion 3) | 0.0213 | 0.0182 |  |  |  | 
CCUUAGUCACAGGAUAUGCUCAUCUAAUGAUGAGCAGAAGGGUGGACAUGAGGAUCACCCAUGUUUAUCAAGGG [Omei Ex6 E2] (Eterna round: R97, puzzle: Exclusion 6) | 0.249 | 0.348 |  |  |  | 
CGCCUACAUGAGGAUCACCCAUGUGAGGAUAUCCUGCGAGGAUCAAAAGAUCCUCGUGGGAGAAGGCGCCUGGA [Omei Ex1 B6] (Eterna round: R97, puzzle: Exclusion 1) | 0.0376 | 0.0131 |  |  |  | 
GCCAGAGCAGGAUAUCUAAUAUCUCACAUGAGGAUCACCCAUGUCCAGCGAAAGCUGGAGGGAGAAGGGCUCUGGC [Fiskers Ex 5 - 10] (puzzle: Exclusion 5) |  |  |  | 0.0498 | 0.0343 | 0.0618
UUACGGAUAGAGGAUAUAUUAAGGAAGGUUUCGAUAGAAGGCUAGACAUGAGGAUCACCCAUGUAUAUUGGGAU [JR_Ex6_Sub073] (Eterna round: R97, puzzle: Exclusion 6) | 0.164 | 0.0979 |  |  |  | 
ACGAGGUCAGGAUAUACAGAGAGAAGGAGUUGGUUGAGGUAACAUGAGGAUCACCCAUGUAGAAGGGACUGGGA [JR_Exclu2_Sub081] (puzzle: Exclusion 2) |  |  |  | 0.0312 | 0.048 | 0.0349
CAGUACUGAGGAUAUACAUGAGGAUCACCCAUGUGUUCCAGCUAGGAAACUAGCAAAAGUAGAAGGUAGUACUG [salish99_ex3_r3_086 (!)] (puzzle: Exclusion 3) |  |  |  | 0.0147 |  | 
UUCGUGCAGCUUUGCUGUACGCGUACAUGAGGAUCACCCAUGUAGGAUAUGGUAGGCUUUGCUUACUAGAAGGAUAUGGUGAGC [JL EXNG3 1.33] (Eterna round: R96, puzzle: Exclusion NG 3) | 0.0856 | 0.0361 | 0.0372 |  |  | 
CGUUGUCAAGGAUAUAUAGAGCUAUACAUGAGGAUCACCCAUGUGGUUAGUGUUGUGUGAGUAGAAGGUGGAAUGU [Eternabot (L2) Solution 99] (Eterna round: R97, puzzle: Exclusion 5) | 0.0843 | 0.224 |  |  |  | 
GUGCUAUAGGAAGGAUAUACUUCAUUAGACUAACAUGAGGAUCACCCAUGUAACCUUAUGUAUGUGUAGAAGGUCCAUAGCUUA (Eterna round: R96, puzzle: Exclusion NG 2) | 0.0155 | 0.0201 | 0.0133 |  |  | 

Sequence | apparent KD of MS2 coat protein (input ligand: FMN 200 uM) [µM] | apparent KD of MS2 coat protein (input ligand: none) [µM] | apparent KD of MS2 coat protein [1] [µM] | apparent KD of MS2 coat protein [2] [µM] | apparent KD of MS2 coat protein [3] [µM] | apparent KD of MS2 coat protein [4] [µM]
CUGAGCAGACGGAGAUCCAACAUGAGGAUCACCCAUGUCUCAAAAGCUUUUUGCUCGCCUUAUCCUCCUCUGUUCUC [Ererququce] (puzzle: Sensor v3, turn-off variant 1) |  |  |  | 0.208 | 0.0348 | 0.0366
UCUCAGAUAGGAUAUACGUUGGCGGUAGAUCGGGUUUAAAUACAUGAGGAUCACCCAUGUAGAAGGAUCGAGGG [EX2 C.8] (Eterna round: R97, puzzle: Exclusion 2) | 0.0944 | 0.104 |  |  |  | 
AAGAUGAGACAGGAUAUCCACAAAAUCUUGUCAGGAGAAGGGUCUACAUGAGGAUCACCCAUGUGAUUCUUGAA [Inriinvele] (puzzle: Exclusion 6) |  |  |  | 0.0146 | 0.0191 | 0.0181
UUUGGUGUAGGAUAUACAUGAGGAUCACCCAUGUGCUCCUGCGAGUUCGAAUCCAAAGGUAGAAGGGCGCUAAU [Eternabot (L2) Solution 83] (Eterna round: R97, puzzle: Exclusion 3) | 0.0233 | 0.0212 |  |  |  | 
GGCACACAUGAGGAUCACCCAUGUGAGGAUAUGAGGCGAUCGUCGAAAGACGAUAGCCUCAGAAGGCACAUGCC [Eli x1 4.10] (Eterna round: R97, puzzle: Exclusion 1) | 0.0429 | 0.016 |  |  |  | 
CGUCUGUCAGGAUAUGGUUACAUAGACAUGAGGAUCACCCAUGUGACGUGGGACUAGUGAUUAGAAGGGACGAACG [EX5 #69] (Eterna round: R97, puzzle: Exclusion 5) | 0.0365 | 0.0317 |  |  |  | 
UAUAAACAUGAGGAUCACCCAUGUGAGGAUAUCAAAACCAGAGCGGAUCUCUGGCCCAUGAGAAGGUGCAUGGU [ElNandoxlusion 8 - Jieux - Exclusion 1] (Eterna round: R97, puzzle: Exclusion 1) | 0.137 | 0.0262 |  |  |  | 
GCAGCAUAGUUUACUAACUGUUACAUGAGGAUCACCCAUGUUUAGGAUAUGGUCUGGAUUACAGGCCAGAAGGAAACAAGCUGC [Eli exng3 - 033] (Eterna round: R96, puzzle: Exclusion NG 3) | 0.0128 | 0.0124 | 0.00951 |  |  | 
AAGAAACAUGAGGAUCACCCAUGUGAGGAUAUGAAAAAGAAAAGAAAAGAAAGAAGAAUCAGAAGGCACAAAGC [salish99-ex1_r3_090] (puzzle: Exclusion 1) |  |  |  | 0.0286 | 0.0225 | 0.0321
AACUAGGCAGGAUAUACAUGAGGAUCACCCAUGUAAAUUUUUCGUUUAACUUGAAUGUGUAGAAGGGCCAUAAA [Ex3 #52] (Eterna round: R97, puzzle: Exclusion 3) | 0.0233 | 0.0246 |  |  |  | 
ACAAGCUUUUUGUUCGUCUUAUAAUAUUAAAUAAAGAUAACAUGAGGAUCACCCAUGUAACAAAGACGGACUCAUGU [Sesor Array 17 - Jieux - Sensor v3, turn-off variant 2] (puzzle: Sensor v3, turn-off variant 2) |  |  |  | 0.2 | 0.0162 | 0.0138
AAACCUAUAGGAUAUACAUGAGGAUCACCCAUGUUGCGAUUUUUUAGGUAACAGAUCCGUAGAAGGGUAGGGCA [Retebi] (puzzle: Exclusion 3) |  |  |  | 0.0283 |  | 
AGAUGCUCAAGUCGACAUGAGGAUCACCCAUGUACAGUUAAUGAGGAUAUCUGAGACAAAUAGUAGGAGAAGGCGUGAACAUGA [Ex NG3 #10] (Eterna round: R96, puzzle: Exclusion NG 3) | 0.0552 | 0.0576 | 0.0265 |  |  | 
GCGCCAUCGUGAGAUGGCGUUCCGACAUGAGGAUCACCCAUGUAGGAUAUCGAUUGCUUUGCAGUCGAGAAGGGCGUGAUAAGU [JL ENG3 3.73] (Eterna round: R96, puzzle: Exclusion NG 3) | 0.0183 | 0.0229 | 0.0178 |  |  | 
UUUUUACGAGGAUAUCGUUUUUUUCACAUGAGGAUCACCCAUGUUGUUUAUGUUUCGUUUCGAGAAGGCGUUUGUU [JR_E5_Sub065] (puzzle: Exclusion 5) |  |  |  | 0.0261 |  | 
